Where no end group is shown, it is not given here. [ ]: non-standard residue; d: D form. pT = C[C@@H](OP(=O)(O)O)[C@H](N)C(=O)O; pS = N[C@@H](COP(=O)(O)O)C(=O)O

Among the data in PMC6351565 (2019) are Kd values, retold here.

First the molecules themselves.
B1: Site 4 peptide (pS366) (peptide)
chain: Ac-TLPRSS[pS]MAAGLEK-NH2
SMILES: CSCC[C@H](NC(=O)[C@H](COP(=O)(O)O)NC(=O)[C@H](CO)NC(=O)[C@H](CO)NC(=O)[C@H](CCCNC(=N)N)NC(=O)[C@@H]1CCCN1C(=O)[C@H](CC(C)C)NC(=O)[C@@H](NC(C)=O)[C@@H](C)O)C(=O)N[C@@H](C)C(=O)N[C@@H](C)C(=O)NCC(=O)N[C@@H](CC(C)C)C(=O)N[C@@H](CCC(=O)O)C(=O)N[C@@H](CCCCN)C(N)=O
B2: Site 2 peptide (pT340) (peptide)
chain: Ac-LSDSYSN[pT]LPVRKS-NH2
SMILES: CC(=O)N[C@@H](CC(C)C)C(=O)N[C@@H](CO)C(=O)N[C@@H](CC(=O)O)C(=O)N[C@@H](CO)C(=O)N[C@@H](Cc1ccc(O)cc1)C(=O)N[C@@H](CO)C(=O)N[C@@H](CC(N)=O)C(=O)N[C@H](C(=O)N[C@@H](CC(C)C)C(=O)N1CCC[C@H]1C(=O)N[C@H](C(=O)N[C@@H](CCCNC(=N)N)C(=O)N[C@@H](CCCCN)C(=O)N[C@@H](CO)C(N)=O)C(C)C)[C@@H](C)OP(=O)(O)O
B3: Site 3 peptide (pT360) (peptide)
chain: Ac-ATTENK[pT]LPRSSS-NH2
SMILES: CC(=O)N[C@@H](C)C(=O)N[C@H](C(=O)N[C@H](C(=O)N[C@@H](CCC(=O)O)C(=O)N[C@@H](CC(N)=O)C(=O)N[C@@H](CCCCN)C(=O)N[C@H](C(=O)N[C@@H](CC(C)C)C(=O)N1CCC[C@H]1C(=O)N[C@@H](CCCNC(=N)N)C(=O)N[C@@H](CO)C(=O)N[C@@H](CO)C(=O)N[C@@H](CO)C(N)=O)[C@@H](C)OP(=O)(O)O)[C@@H](C)O)[C@@H](C)O

For the test, the target named is T1, 14-3-3θ (human, UniProt P27348 1-245).
T1 chain: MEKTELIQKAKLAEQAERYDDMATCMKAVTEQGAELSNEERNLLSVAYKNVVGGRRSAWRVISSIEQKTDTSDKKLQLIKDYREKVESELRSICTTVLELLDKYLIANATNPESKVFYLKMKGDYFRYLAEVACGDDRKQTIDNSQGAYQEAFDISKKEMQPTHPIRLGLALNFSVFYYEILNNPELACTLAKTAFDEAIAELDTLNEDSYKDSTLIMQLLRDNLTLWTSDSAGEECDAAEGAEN
Kind of test: ITC. For orientation: In ITC the heat of successive injections is recorded.
With B1, the dissociation constant Kd stood at 16.5 µM. As for B2, binding was characterised by a dissociation constant (Kd) of 5.5 µM. B3 displayed a Kd of 15.5 µM.

In the case of AQPKSL[pS]PPQSQSKLSDSYSN[pT]LPVRKS [Sites 1,2 peptide (pS325/pT340)], the Kd was 16.2 µM.

Usually Kd stands for the free concentration of one partner at which half of the binding sites on the other are occupied at equilibrium, for simple one-to-one binding. A high value points to lower affinity.
